Results taken from patent publication US20030138452A1.

Key:
[1] = biological target: chemokine receptors of MCP-3 on murine splenocytes and purified T cells; assay: cell-based or functional assay
[2] = biological target: chemokine receptor of IP-10 on murine splenocytes and purified T cells (murine) (UniProt O88410); assay: cell-based or functional assay
UniProt O88410, sequence (O88410 whole entry): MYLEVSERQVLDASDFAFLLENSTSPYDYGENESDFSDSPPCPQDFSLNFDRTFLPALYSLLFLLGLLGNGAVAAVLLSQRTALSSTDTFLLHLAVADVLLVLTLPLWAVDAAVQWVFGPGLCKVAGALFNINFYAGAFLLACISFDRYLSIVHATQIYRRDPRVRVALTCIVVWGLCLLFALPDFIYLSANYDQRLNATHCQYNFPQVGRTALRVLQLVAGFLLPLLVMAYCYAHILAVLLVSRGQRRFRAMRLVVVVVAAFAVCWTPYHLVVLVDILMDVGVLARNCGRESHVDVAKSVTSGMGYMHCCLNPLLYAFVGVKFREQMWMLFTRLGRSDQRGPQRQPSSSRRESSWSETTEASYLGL

Molecule | in vitro chemotaxis of murine lymphocytes (48-well microchemotaxis chamber): concentration of maximum activity [1] [µg/mL] | in vitro chemotaxis of murine lymphocytes (48-well microchemotaxis chamber): concentration of maximum activity [2] [µg/mL]
MCP3FBscFv38MH (MCP-3 fused to scFv38 of the 38c13 lymphoma) (from UniProt Q03366 24-97) | 100 | –
IP10FBscFv38MH (murine IP-10 fused to scFv38 of the 38c13 lymphoma) (protein, part only; not given: scFv38 VH and VL, tags, not shown: small tags and cut ends) chain, part: IPLARTVRCNCIHIDDGPVRMRAIGKLEIIPASLSCPRVEIIATMKKNDEQRCLNPESKTIKNLMKAFSQKRSKRAPEFNDQAPKSLE | – | 100
